{"source": "paper PMC10906865", "target": "Human Herpes Simplex Virus glycoprotein D (Human Herpes Simplex Virus) (UniProt Q69091)", "test": "differential scanning calorimetry; peak height of the DSC thermogram of the pure protein compared with a DNA hairpin standard curve; ratio of the calorimetric concentration to the UV-Vis or dry-weight concentration read as stoichiometry; 150 mM NaCl, 10 mM potassium phosphate, 15 mM sodium citrate, pH 7.4; heating about 1°C/min", "data": [{"substance": "Human Herpes Simplex Virus glycoprotein D (from UniProt Q69091 26-394) (natural protein)", "values": [{"measurement": "factor of the transition heat capacity over the average of the other molecules", "result": 2.2, "unit": "fold"}, {"measurement": "percent of dimers in the sample", "result": 35, "unit": "%"}, {"measurement": "percent of trimers in the sample", "result": 65, "unit": "%"}, {"measurement": "stoichiometry N", "result": 2.65}]}]}
